First the molecules themselves.
B1: 226 (protein)
chain: MGHHHHHHGGSVSDVPRDLEVVAATPTSLLISWEYKVHPYRYYRIIHETGGNSPVQEFTVPSVLSTATISGLKPGVDYTITVYAVTYGDDSAPISINYRTEID
modifications: Adnectin
B2: 216 (protein)
chain: MGHHHHHHGGSVSDVPRDLEVVAATPTSLLISWEYKVHPYRYYRITYGETGGNSPVQEFTVPSVLSTATISDLKPGVDYTITVYAVTYGDDSHPISINYRTEID
modifications: Adnectin
B3: 218 (protein)
chain: MGHHHHHHGGSVSDVPRDLEVVAATPTSLLISWEYKVHPYRYYRITYGETGGNSPVQEFTVPSVLSTATIRGLKPGVDYTITVYAVTYGDDSAPISINYRTEID
modifications: Adnectin
B4: 225 (protein)
chain: MGHHHHHHGGSVSDVPRDLEVVAATPTSLLISWEYKVTSYRYYRITYGETGGNSPVQEFTVPSVLSTATISGLKPGVDYTITVYAVTYGDDSAPISINYRTEID
modifications: Adnectin
B5: 220 (protein)
chain: MGHHHHHHCGSVSDVPRDLEVVAATPTSLLISWEYKVAHNRYYRITYGETGGNSPVQEFTVPSVLSTATISGLKPGVDYTITVYAVTYGDDSAPISINYRTEID
modifications: Adnectin
B6: 228 (protein)
chain: MGHHHHHHGGSVSDVPRDLEVVAATPTSLLISWEYKVNHQRYYRITYGETGGNSPVQEFTVPSVLSTATISGLKPGVDYTITVYAVTYGDDSAPISINYRTEID
modifications: Adnectin
B7: 223 (protein)
chain: MGHHHHHHGGSVSDVPRDLEVVAATPTSLLISWEYKVDYRRYYRITYGETGGNSPVQEFTVPSVLSTATISGLKPGVDYTITVYAVTYGDDSAPISINYRTEID
modifications: Adnectin
B8: 246 (protein)
chain: MGHHHHHHGGSVSDVPRDLEVVAATPTSLLISWEYKVNYNRYYRITYGETGGNSPVQEFTVPSVLSTATISGLKPGVDYTITVYAVTEGVQSAPISINYRTEID
modifications: Adnectin
B9: 222 (protein)
chain: MGHHHHHHGGSVSDVPRDLEVVAATPTSLLISWEYKVDHQRYYRITYGETGGNSPVQEFTVPSVLSTATISGLKPGVDYTITVYAVTYGDDSAPISINYRTEID
modifications: Adnectin
B10: 245 (protein)
chain: MGHHHHHHGGSVSDVPRDLEVVAATPTSLLISWKYQVHAYRYYRITYGETGGNSPVQEFTVPSVLSTATINGLKPGVDYTITVYAVTYGIISEPISINYRTEID
modifications: Adnectin
B11: 221 (protein)
chain: MGHHHHHHGGSVSDVPRDLEVVAATPTSLLISWEYKVYGYRYYRITYGETGGNSPVQEFTVPSVLSTATISGLKPGVDYTITVYAVTYGDDSAPISINYRTEID
modifications: Adnectin
B12: 229 (protein)
chain: MGHHHHHHGGSVSDVPRDLEVVAATPTSLLISWEYKVDHRRYYRITYGETGGNSPVQEFTVPSVLSTATISGLKPGVDYTITVYAVTYGDDSAPISINYRTEID
modifications: Adnectin
B13: 224 (protein)
chain: MGHHHHHHGGSVSDVPRDLEVVAATPTSLLISWEYKVAYDRYYRITYGETGGNSPVQEFTVPSVLSTATISGLKPGVDYTITVYAVTYGDDSAPISINYRTEID
modifications: Adnectin
B14: 217 (protein)
chain: MGHHHHHHGGSVSDVPRDLEVVAATPTSLLISWEYKVHPYRYYRITYGETGGNSPVQEFTVPSVLSTATISGLKPGVDYTITVYAVTRGDDSAPISINYRTEID
modifications: Adnectin
B15: 248 (protein)
chain: MGHHHHHHGGSVSDVPRDLEVVAATPTSLLISWEYKVHPYRYYRITYGETGGNTPVQEFRVPSVLSTATISGLKPGVDYTITVYAVTYADASAPISINYRTEID
modifications: Adnectin
B16: 219 (protein)
chain: MGHHHHHHGGSVSDVPRDLEVVAATPTSLLISWKYKVHPYRYYRITYGETGGNSPVQEFTVPSVLSTATISGLKPGVDYTITVYAVTYGDDSAPISINYRTEID
modifications: Adnectin
B17: 227 (protein)
chain: MGHHHHHHGGSVSDVPRDLEVVAATPTSLLISWEYKVHPYRYYRITYGETGGNSPVQEFTVPSVLSTATISGLKPGVDYTITVYAVTYGDDSAPISINYRKEAEL
modifications: Adnectin
B18: 124 (protein)
chain: MGVSDVPRDLEVVAATPTSLLISWEYKVHPYRYYRITYGETGGNSPVQEFTVPSVLSTAEISGLKPGVDYTITVYAVTRGVDSAPISINYRTPIDKPSQHHHHHH
modifications: Adnectin
B19: 238 (protein)
chain: MGVSDVPRDLEVVAATPTSLLISWEYKVNPWRYYRITYGETGGNSPVQEFTVPSVLSTATISGLKPGVDYTITVYAVTYGIQSPPISINYRTEIDKPSQHHHHHH
modifications: Adnectin
B20: 126 (protein)
chain: MGVSDVPRDLEVVAATPTSLLISWEYKVHPYRYYRITYGETGGNSPVQEFTVPSVLSTATISGLKPGVDYTITVYAVTYGIQSPPISINYRTEIDKPSQHHHHHH
modifications: Adnectin
B21: 239 (protein)
chain: MGVSDVPRDLEVVAATPTSLLISWQYKVHPYRWYRITYGETGGNSPVQEFTVPSVLSTATISGLKPGVDYTITVYAVTYGVNSIPISINYRTEIDKPSQHHHHHH
modifications: Adnectin
B22: 234 (protein)
chain: MGVSDVPRDLEVVAATPTSLLISWEYKVNAYRYYRITYGETGGNSPVQEFTVPSVLSTATISGLKPGVDYTITVYAVTYGIDSSPISINYRTEIDKPSQHHHHHH
modifications: Adnectin
B23: 235 (protein)
chain: MGVSDVPRDLEVVAATPTSLLISWEYKVHYDRYYRITYGETGGNSPVQEFTVPSVLSTATISGLKPGVDYTITVYAVTNGVLSSPISINYRTEIDKPSQHHHHHH
modifications: Adnectin
B24: 236 (protein)
chain: MGVSDVPRDLEVVAATPTSLLISWEYKVNPWRYYRITYGETGGNSPVQEFTVPSVLSTATISGLKPGVDYTITVYAVTRGVDSAPISINYRTEIDKPSQHHHHHH
modifications: Adnectin
B25: 244 (protein)
chain: MGVSDVPRDLEVVAATPTSLLISWEYKVDPYRYYRITYGETGGNSPVQEFTVPSVLSTATISGLKPGVDYTITVYAVTYGVDSDPISINYRTEIDKPSQHHHHHH
modifications: Adnectin
B26: 243 (protein)
chain: MGVSDVPRDLEVVAATPTSLLISWEYKVNPWRYYRITYGETGGNSPVQEFTVPSVLSTATISGLKPGVDYTITVYAVTYGVDSDPISINYRTEIDKPSQHHHHHH
modifications: Adnectin
B27: 241 (protein)
chain: MGVSDVPRDLEVVAATPTSLLISWEYKVNPWRYYRITYGETGGNSPVQEFTVPSVLSTATISGLKPGVDYTITVYAVTYGVNSLPISINYRTEIDKPSQHHHHHH
modifications: Adnectin
B28: 231 (protein)
chain: MGVSDVPRDLEVVAATPTSLLISWEYKVHPYRYYRITYGETGGNSPVQEFTVPSVLSTATISGLKPGVDYTITVYAVTYGVNSIPISINYRTEIDKPSQHHHHHH
modifications: Adnectin
B29: 232 (protein)
chain: MGVSDVPRDLEVVAATPTSLLISWEYKVNAYRYYRITYGETGGNSPVQEFTVPSVLSTATISGLKPGVDYTITVYAVTYGIESSPISINYRTEIDKPSQHHHHHH
modifications: Adnectin
B30: 233 (protein)
chain: MGVSDVPRDLEVVAATPTSLLISWEYKVHPYRYYRITYGETGGNSPVQEFTVPSVLSTATISGLKPGVDYTITVYAVTDGVQSSPISINYRTEIDKPSQHHHHHH
modifications: Adnectin
B31: 240 (protein)
chain: MGVSDVPRDLEVVAATPTSLLISWEYKVSPYRYYRITYGETGGNSPVQEFTVPSVLSTATISGLKPGVDYTITVYAVTYGVNSIPISINYRTEIDKPSQHHHHHH
modifications: Adnectin
B32: 230 (protein)
chain: MGVSDVPRDLEVVAATPTSLLISWEYKVHPYRYYRITYGETGGNSPVQEFTVPSVLSTATISGLKPGVDYTITVYAVTYGVDSDPISINYRTDDKPSQHHHHHH
modifications: Adnectin
B33: 125 (protein)
chain: MGHHHHHHGGVSDVPRDLEVVAATPTSLLISWEYKVHPYRYYRITYGETGGNSPVQEFTVPSVLSTATISGLKPGVDYTITVYAVTYGVQSDPISINYRTPGG
modifications: Adnectin

Usually EC50 stands for the concentration at which the effect is half-maximal.

In the assay the test system is NL-Rluc virus. As to the kind of experiment: Combinectin potency assay: antiviral EC50, NL-Rluc virus in MT-2 cells, luciferase readout. It counts as cell-based, HIV-1. Particulars: Anti-N17 Adnectin, Table 3. In short, it runs like this: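 Peptides, serially diluted threefold over 11 points in triplicate, were exposed for 4–5 days to MT-2 cells preinfected 1 h with NL-Rluc virus (MOI 0.01). Replication read out as Renilla luciferase signal, with EC50 derived against untreated infected controls.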
Take B1: the EC50 worked out at 631 nM.
Regarding B2, the EC50 was greater than 1000 nM.
The same measure for B3: 62 nM.
As to B4, the concentration giving a half-maximal response (EC50) was greater than 1000 nM.
The value for B5 was 86 nM; that for B6 was greater than 1000 nM.
On to B7, for which the EC50 is greater than 1000 nM.
Turning to B8, the EC50 was greater than 1000 nM.
With B9, the EC50 is greater than 1000 nM.
The same measure for B10: 50 nM; for B11: greater than 1000 nM.
The value for B12 was greater than 1000 nM.
Regarding B13, the 50% effective concentration (EC50) was greater than 1000 nM.
The value for B14 was greater than 1000 nM; that for B15 was greater than 1000 nM.
The value for B16 was greater than 1000 nM; that for B17 was greater than 1000 nM; that for B18 was 6 nM.
As for B19, the concentration for a half-maximal effect (EC50) turned out to be 11 nM.
With B20, the EC50 came out at 8 nM.
The value for B21 was 4 nM; that for B22 was 20 nM.
The same measure for B23: 29 nM; for B24: 85 nM.
For the molecule B25, the concentration for a half-maximal effect (EC50) came to 58 nM.
Take B26: the EC50 turned out to be 48 nM.
B27: the EC50 was determined as 8 nM.
B28: the EC50 was 10 nM.
The value for B29 was 47 nM; that for B30 was 55 nM.
The value for B31 was 5 nM.
With B32, the EC50 was found to be 17 nM.
With B33, the EC50 was found to be 4340 nM.

These data come from patent US11155602B2, “Polypeptides targeting HIV fusion” (priority 2015, dated 2021).
